Measured values taken from article PMC3079799 (Nature chemical biology, 2011).

What was measured:
[1] = target: T1, parathyroid hormone receptor type 1 with GFP inserted in its N-terminus (^GFPPTHR) (UniProt Q03431 27-593); test: FRAP
T1 sequence: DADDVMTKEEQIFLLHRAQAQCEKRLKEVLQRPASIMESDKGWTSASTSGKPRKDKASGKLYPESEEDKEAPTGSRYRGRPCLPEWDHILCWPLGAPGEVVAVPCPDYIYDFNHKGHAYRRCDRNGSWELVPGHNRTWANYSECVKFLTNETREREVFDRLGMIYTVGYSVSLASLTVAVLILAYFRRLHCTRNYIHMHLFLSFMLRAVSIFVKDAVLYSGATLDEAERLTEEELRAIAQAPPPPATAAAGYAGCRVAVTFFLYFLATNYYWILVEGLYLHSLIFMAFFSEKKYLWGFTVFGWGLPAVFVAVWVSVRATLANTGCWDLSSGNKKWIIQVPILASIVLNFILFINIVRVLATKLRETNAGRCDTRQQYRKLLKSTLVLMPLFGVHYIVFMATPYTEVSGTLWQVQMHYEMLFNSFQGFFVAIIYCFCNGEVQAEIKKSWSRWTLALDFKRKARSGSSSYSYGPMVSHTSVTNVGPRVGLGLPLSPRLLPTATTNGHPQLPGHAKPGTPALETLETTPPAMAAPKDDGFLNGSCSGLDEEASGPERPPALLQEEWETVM

[2] = target: T1, parathyroid hormone receptor type 1 …; test: FRAP; remark: listed apart in the source

B1: β-arrestin1 fused to tdTomato (β-arr1^tom) (natural protein)
chain: MGDKGTRVFKKASPNGKLTVYLGKRDFVDHIDLVDPVDGVVLVDPEYLKERRVYVTLTCAFRYGREDLDVLGLTFRKDLFVANVQSFPPAPEDKKPLTRLQERLIKKLGEHAYPFTFEIPPNLPCSVTLQPGPEDTGKACGVDYEVKAFCAENLEEKIHKRNSVRLVIRKVQYAPERPGPQPTAETTRQFLMSDKPLHLEASLDKEIYYHGEPISVNVHVTNNTNKTVKKIKISVRQYADICLFNTAQYKCPVAMEEADDTVAPSSTFCKVYTLTPFLANNREKRGLALDGKLKHEDTNLASSTLLREGANREILGIIVSYKVKVKLVVSRGGLLGDLASSDVAVELPFTLMHPKPKEEPPHREVPENETPVDTNLIELDTNDDDIVFEDFARQRLKGMKDDKEEEEDGTGSPQLNNR
With B1 the “half-life (t1/2) of fluorescence recovery (FRAP), after PTH(1-34)” value [1] was 30 ± 2.5 s and the “half-life (t1/2) of fluorescence recovery (FRAP), after M-PTH(1-28)” value [2] was 69 ± 4.5 s.
